Assay [1] addresses TLR2 TMD peptide labelled with Rho (TLR2-Rho). The experiment in a line: FRET, gp41 TMD-NBD constant at 0.4 µM and TLR2-Rho added at 0.025-0.8 µM, 100 µM LUVs.
For assay [2], the target named is CD3 molecules of the CD3/TCR complex on mouse T cells (mouse) (UniProt A2KF29). The experiment in a line: confocal fluorescence microscopy, NBD-peptide and labelled anti-CD3 antibody on mouse T cells.

“gp41 TMD conjugated to NBD (gp41 transmembrane domain peptide, NBD-labelled)”: the percent of energy transfer (FRET) in assay [1] is above 60%. In assay [2], this substance returned a co-localization percentage of 58.8%.

(Values after patent US20120321668A1.)
